Holding throughout (assay): purified protein
Common to all, as to type: biochemical, Homo sapiens

Substrate in data set [1]: Nc1nc2c(ncn2[C@H]2C[C@H](O)[C@@H](COP(=O)(O)OP(=O)(O)OP(=O)(O)O)O2)c(=O)[nH]1
As to conditions: opposite O2-Me-dT template, Mg2+, pH 8.0, 37 °C.

Substrate in data set [2]: Nc1ncnc2c1ncn2[C@H]1C[C@H](O)[C@@H](COP(=O)(O)OP(=O)(O)OP(=O)(O)O)O1
The following applies: opposite undamaged template dT (P15/T24), Mg2+, pH 8.0, 37 °C.

Substrate in data set [3]: Nc1ccn([C@H]2C[C@H](O)[C@@H](COP(=O)(O)OP(=O)(O)OP(=O)(O)O)O2)c(=O)n1
The following applies: opposite O2-Me-dT template, Mg2+, pH 8.0, 37 °C.

B1: pol η (Homo sapiens) (protein)
chain: MATGQDRVVALVDMDCFFVQVEQRQNPHLRNKPCAVVQYKSWKGGGIIAVSYEARAFGVTRSMWADDAKKLCPDLLLAQVRESRGKANLTKYREASVEVMEIMSRFAVIERASIDEAYVDLTSAVQERLQKLQGQPISADLLPSTYIEGLPQGPTTAEETVQKEGMRKQGLFQWLDSLQIDNLTSPDLQLTVGAVIVEEMRAAIERETGFQCSAGISHNKVLAKLACGLNKPNRQTLVSHGSVPQLFSQMPIRKIRSLGGKLGASVIEILGIEYMGELTQFTESQLQSHFGEKNGSWLYAMCRGIEHDPVKPRQLPKTIGCSKNFPGKTALATREQVQWWLLQLAQELEERLTKDRNDNDRVATQLVVSIRVQGDKRLSSLRRCCALTRYDAHKMSHDAFTVIKNCNTSGIQTEWSPPLTMLFLCATKFSASAPSSSTDITSFLSSDPSSLPKVPVTSSEAKTQGSGPAVTATKKATTSLESFFQKAAERQKVKEASLSSLTAPTQAPMSNSPSKPSLPFQTSQSTGTEPFFKQKSLLLKQKQLNNSSVSSPQQNPWSNCKALPNSLPTEYPGCVPVCEGVSKLEESSKATPAEMDLAHNSQSMHASSASKSVLEVTQKATPNPSLLAAEDQVPCEKCGSLVPVWDMPEHMDYHFALELQKSFLQPHSSNPQVVSAVSHQGKRNPKSPLACTNKRPRPEGMQTLESFFKPLTH
Broadly, the Km is the substrate concentration at which the rate is half of its maximum. As usually defined, the kcat is the maximal rate divided by the concentration of active sites. By kcat/Km is commonly meant the turnover number divided by the Michaelis constant. Take B1: in the data set “purified protein [1]”, the Km was found to be 38.4 ± 1.8 µM, the kcat came out at 0.00065 ± 1.67e-05 s⁻¹ and the kcat/Km amounted to 17.5 ± 0.667 M⁻¹ s⁻¹. In “purified protein [2]”, the Michaelis-Menten constant (Km) was 5.3 ± 0.3 µM, the turnover number (kcat) is 0.817 ± 0.0333 s⁻¹ and the kcat/Km is 154000 ± 3830 M⁻¹ s⁻¹. Also, in the data set “purified protein [3]”, the Km is 130.2 ± 11.4 µM, the turnover number (kcat) was determined as 0.00113 ± 5e-05 s⁻¹ and the kcat/Km is 8.67 ± 0.333 M⁻¹ s⁻¹.

B2: pol κ (Homo sapiens) (protein)
chain: MDSTKEKCDSYKDDLLLRMGLNDNKAGMEGLDKEKINKIIMEATKGSRFYGNELKKEKQVNQRIENMMQQKAQITSQQLRKAQLQVDRFAMELEQSRNLSNTIVHIDMDAFYAAVEMRDNPELKDKPIAVGSMSMLSTSNYHARRFGVRAAMPGFIAKRLCPQLIIVPPNFDKYRAVSKEVKEILADYDPNFMAMSLDEAYLNITKHLEERQNWPEDKRRYFIKMGSSVENDNPGKEVNKLSEHERSISPLLFEESPSDVQPPGDPFQVNFEEQNNPQILQNSVVFGTSAQEVVKEIRFRIEQKTTLTASAGIAPNTMLAKVCSDKNKPNGQYQILPNRQAVMDFIKDLPIRKVSGIGKVTEKMLKALGIITCTELYQQRALLSLLFSETSWHYFLHISLGLGSTHLTRDGERKSMSVERTFSEINKAEEQYSLCQELCSELAQDLQKERLKGRTVTIKLKNVNFEVKTRASTVSSVVSTAEEIFAIAKELLKTEIDADFPHPLRLRLMGVRISSFPNEEDRKHQQRSIIGFLQAGNQALSATECTLEKTDKDKFVKPLEMSHKKSFFDKKRSERKWSHQDTFKCEAVNKQSFQTSQPFQVLKKKMNENLEISENSDDCQILTCPVCFRAQGCISLEALNKHVDECLDGPSISENFKMFSCSHVSATKVNKKENVPASSLCEKQDYEAHPKIKEISSVDCIALVDTIDNSSKAESIDALSNKHSKEECSSLPSKSFNIEHCHQNSSSTVSLENEDVGSFRQEYRQPYLCEVKTGQALVCPVCNVEQKTSDLTLFNVHVDVCLNKSFIQELRKDKFNPVNQPKESSRSTGSSSGVQKAVTRTKRPGLMTKYSTSKKIKPNNPKHTLDIFFK
With B2, the Michaelis-Menten constant (Km) came out at 64 ± 12 µM in “purified protein [1]”, 1.4 ± 0.1 µM in the data set “purified protein [2]” and 160 ± 30 µM in “purified protein [3]”. The turnover number (kcat) in “purified protein [1]” is 0.000917 ± 6.67e-05 s⁻¹; in “purified protein [3]” it was 0.00112 ± 0.0001 s⁻¹. Besides, the catalytic efficiency (kcat/Km) in “purified protein [1]” was found to be 14.3 M⁻¹ s⁻¹; in “purified protein [2]”, 53300 M⁻¹ s⁻¹; in “purified protein [3]”, 6.83 M⁻¹ s⁻¹.

B3: pol ι (Homo sapiens) (protein)
chain: MEKLGVEPEEEGGGDDDEEDAEAWAMELADVGAAASSQGVHDQVLPTPNASSRVIVHVDLDCFYAQVEMISNPELKDKPLGVQQKYLVVTCNYEARKLGVKKLMNVRDAKEKCPQLVLVNGEDLTRYREMSYKVTELLEEFSPVVERLGFDENFVDLTEMVEKRLQQLQSDELSAVTVSGHVYNNQSINLLDVLHIRLLVGSQIAAEMREAMYNQLGLTGCAGVASNKLLAKLVSGVFKPNQQTVLLPESCQHLIHSLNHIKEIPGIGYKTAKCLEALGINSVRDLQTFSPKILEKELGISVAQRIQKLSFGEDNSPVILSGPPQSFSEEDSFKKCSSEVEAKNKIEELLASLLNRVCQDGRKPHTVRLIIRRYSSEKHYGRESRQCPIPSHVIQKLGTGNYDVMTPMVDILMKLFRNMVNVKMPFHLTLLSVCFCNLKALNTAKKGLIDYYLMPSLSTTSRSGKHSFKMKDTHMEDFPKDKETNRDFLPSGRIESTRTRESPLDTTNFSKEKDINEFPLCSLPEGVDQEVFKQLPVDIQEEILSGKSREKFQGKGSVSCPLHASRGVLSFFSKKQMQDIPINPRDHLSSSKQVSSVSPCEPGTSGFNSSSSSYMSSQKDYSYYLDNRLKDERISQGPKEPQGFHFTNSNPAVSAFHSFPNLQSEQLFSRNHTTDSHKQTVATDSHEGLTENREPDSVDEKITFPSDIDPQVFYELPEAVQKELLAEWKRAGSDFHIGHK
As to B3, in the data set “purified protein [1]”, the Km stood at 46 ± 2 µM, the kcat came out at 0.0019 ± 3.33e-05 s⁻¹ and the kcat/Km amounted to 41.7 ± 1.67 M⁻¹ s⁻¹. For the same protein, in the data set “purified protein [2]”, the Michaelis constant (Km) came to 2.6 ± 0.4 µM, the catalytic constant (kcat) was 0.133 ± 0.01 s⁻¹ and the kcat/Km came to 51200 ± 4500 M⁻¹ s⁻¹. In addition, in the data set “purified protein [3]”, the Km was 93 ± 14 µM, the catalytic constant (kcat) stood at 0.00102 ± 6.67e-05 s⁻¹ and the kcat/Km amounted to 10.8 ± 1 M⁻¹ s⁻¹.

The record behind these values is publication PMC5081176.
